T1: NKG2D (natural receptor on NK cells) (human, UniProt P26718 1-216)
T1 construct: whole, on cells; also called NKG2D receptors; natural NKG2D
T1 sequence (looked up): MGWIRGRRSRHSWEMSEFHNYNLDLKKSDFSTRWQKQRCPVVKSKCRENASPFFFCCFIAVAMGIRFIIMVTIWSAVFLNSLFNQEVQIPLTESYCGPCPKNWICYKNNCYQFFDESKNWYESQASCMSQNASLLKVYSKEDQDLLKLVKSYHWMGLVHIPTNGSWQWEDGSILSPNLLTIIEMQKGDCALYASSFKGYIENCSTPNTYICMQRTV

T2: NKG2D-GFP (human, UniProt P26718 1-216)
T2 construct: whole, on cells; NKG2D-GFP expressed in NK cells for the PLA between GFP and DAP10; also called natural NKG2D; not shown: GFP
T2 sequence (looked up): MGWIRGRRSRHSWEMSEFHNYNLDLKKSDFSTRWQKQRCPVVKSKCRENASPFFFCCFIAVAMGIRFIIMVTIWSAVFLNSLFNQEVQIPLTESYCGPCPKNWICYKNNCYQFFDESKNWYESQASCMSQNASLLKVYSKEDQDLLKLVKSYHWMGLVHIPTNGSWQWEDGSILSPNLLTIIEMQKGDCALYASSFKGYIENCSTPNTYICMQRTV

B1: DNAX-Activation Protein 10 (DAP10) (other, human, UniProt Q9UBK5 19-93, looked up)
chain: QTTPGERSSLPAFYPGTSGSCSGCGSLSLPLLAGLVAADAVASLLIVGAVFLCARPRRSPAQEDGKVYINMPGRG
notes: whole, on cells; Endogenous DAP10 of the NK cells, detected with anti-DAP10 (mouse IgG) in the PLA

Assays:
[1] = target: T1, NKG2D (natural receptor on NK cells); assay: Duolink proximity ligation assay NKG2D+DAP10, counted PLA signals, CAR-NK cells stimulated by 293T-MICA
NKG2D-GFP = target: T2, NKG2D-GFP; assay: Duolink proximity ligation assay (anti-GFP + anti-DAP10) in NKG2D-GFP expressing NK cells with CAR0 or CAR2, stimulated by 293T-CD19-MICA, confocal microscopy
Experimental: (§1) PLA assays were performed using the in situ Duolink PLA red kit (Sigma-Aldrich) according to the manufacturer's instructions. The CAR0, an empty vector with GFP expression, or CAR2-GFP fusion expressing NK cells were attached to the poly-l-lysine glass, target cells were then added and incubated at 37° C. for 30 minutes. Unattached cells were removed by washing with PBS. slides were fixed and stained with anti-GFP (Rabbit IgG) and anti-DAP10 (Mouse IgG), washed, and stained with anti-rabbit and anti-mouse PLA probes, followed by probe DNA ligation, amplification, Fluorescent staining were then performed and observed using confocal microscopy,
(§2) NKG2D receptor has no intracellular signaling domain, it recruits adaptor DNAX-Activation Protein 10 (DAP10) to transfer signals via YxxM motif (Eagle et al. (2009) Beyond Stressed Self: Evidence for NKG2D Ligand Expression on Healthy Cells. Curr Immunol Rev. 5(1):22-34). […] DAP10 was recruited to the CAR2 effectively stimulating by CD19.

[2] = target: B1; assay: Duolink proximity ligation assay (anti-GFP + anti-DAP10) in NK cells stimulated by 293T-CD19-MICA, confocal microscopy
Experimental: as §1, §2

binding result [1] | binding result (NKG2D-GFP) | binding result [2] | Binder
binds | binds |  | B1
 |  | binds | CAR2-GFP fusion (NKG2D CAR: anti-CD19 ScFv-CD8 hinge-NKG2D TM-2B4 ICD-CD3zeta, fused to GFP) (receptor, Expressed in NK cells for the Duolink PLA; not shown: GFP) EVKLQQSGAELVRPGSSVKISCKASGYAFSSYWMNWVKQRPGQGLEWIGQIYPGDGDTNYNGKFKGQATLTADKSSSTAYMQLSGLTSEDSAVYFCARKTISSVVDFYFDYWGQGTTVTVSSGGGGSGGGGSGGGGSDIELTQSPKFMSTSVGDRVSVTCKASQNVGTNVAWYQQKPGQSPKPLIYSATYRNSGVPDRFTGSGSGTDFTLTITNVQSKDLADYFCQQYNRYPYTSGGGTKLEIKPAKPTTTPAPRPPTPAPTIASQPLSLRPEACRPAAGGAVHTRGLDFACDPFFFCCFIAVAMGIRFIIMVTWRRKRKEKQSETSPKEFLTIYEDVKDLKTRRNHEQEQTFPGGGSTIYSMIQSQSSAPTSQEPAYTLYSLIQPSRKSGSRKRNHSPSFNSTIYEVIGKSQPKAQNPARLSRKELENFDVYSSFGLLDPKLCYLLDGILFIYGVILTALFLRVKFSRSADAPAYQQGQNQLYNELNLGRREEYDVLDKRRGRDPEMGGKPRRKNPQEGLYNELQKDKMAEAYSEIGMKGERRRGKGHDGLYQGLSTATKDTYDALHMQALPPR

From patent US20260083845A1 (CELLICURE, published 2026)
